Measurements published in article PMC4072508, “Genome-Wide Prediction and Validation of Peptides That Bind Human Prosurvival Bcl-2 Proteins” (PLoS Computational Biology, 2014).
“And” between values parts separate entries of the source, which are not always exact repeats. Equal entries are not always repeated.

Tests used:
Bcl-xL = Bcl-xL (UniProt Q07817); experiment: peptide SPOT array, c-Myc-tagged receptor at 1 uM or 100 nM, anti-c-Myc-Cy3
Mcl-1 [1] = molecular target: Mcl-1 (UniProt Q07820); experiment: as above
Target sequence in this assay (Q07820 172-327): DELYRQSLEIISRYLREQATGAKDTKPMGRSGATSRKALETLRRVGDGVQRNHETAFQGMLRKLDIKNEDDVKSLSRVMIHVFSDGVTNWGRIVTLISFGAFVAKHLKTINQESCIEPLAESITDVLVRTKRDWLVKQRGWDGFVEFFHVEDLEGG

Bcl-2 [2] = molecular target: Bcl-2 (UniProt P10415); experiment: as above
Target sequence in this assay (P10415 1-217): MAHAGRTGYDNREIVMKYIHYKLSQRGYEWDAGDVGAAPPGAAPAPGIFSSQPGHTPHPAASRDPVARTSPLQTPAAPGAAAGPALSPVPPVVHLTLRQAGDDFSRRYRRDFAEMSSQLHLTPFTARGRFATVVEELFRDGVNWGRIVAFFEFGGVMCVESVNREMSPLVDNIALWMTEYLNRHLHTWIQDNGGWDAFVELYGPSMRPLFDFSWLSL

Bcl-w = Bcl-w (UniProt Q92843); experiment: as above
Bfl-1 [3] = molecular target: Bfl-1 (UniProt Q16548); experiment: as above
Target sequence in this assay (Q16548 1-151): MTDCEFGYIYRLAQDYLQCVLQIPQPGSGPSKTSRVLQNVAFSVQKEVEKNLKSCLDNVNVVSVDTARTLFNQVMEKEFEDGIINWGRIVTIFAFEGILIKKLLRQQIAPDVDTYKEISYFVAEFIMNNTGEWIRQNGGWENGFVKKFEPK

Mcl-1 [4] = molecular target: Mcl-1 (UniProt Q07820); conditions: cited from earlier work
Target sequence in this assay (Q07820 whole entry): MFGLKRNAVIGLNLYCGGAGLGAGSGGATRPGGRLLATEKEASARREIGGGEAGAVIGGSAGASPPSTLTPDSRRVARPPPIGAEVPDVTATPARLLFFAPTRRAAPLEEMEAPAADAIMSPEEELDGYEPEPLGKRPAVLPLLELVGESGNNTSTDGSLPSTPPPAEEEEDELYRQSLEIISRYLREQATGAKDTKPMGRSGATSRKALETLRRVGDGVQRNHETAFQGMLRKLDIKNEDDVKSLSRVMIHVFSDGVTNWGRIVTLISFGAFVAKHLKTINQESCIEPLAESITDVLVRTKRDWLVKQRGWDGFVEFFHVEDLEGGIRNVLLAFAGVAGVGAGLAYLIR

Bfl-1 [5] = molecular target: Bfl-1 (UniProt Q16548); conditions: cited from earlier work
Target sequence in this assay (Q16548 whole entry): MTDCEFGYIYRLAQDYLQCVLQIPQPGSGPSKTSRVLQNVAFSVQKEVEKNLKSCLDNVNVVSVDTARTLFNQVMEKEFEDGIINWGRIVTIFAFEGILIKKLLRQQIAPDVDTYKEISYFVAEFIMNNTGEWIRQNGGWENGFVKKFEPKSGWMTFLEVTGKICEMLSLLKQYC

[6] = molecular target: PXT1 BH3-like peptide (human); experiment: fluorescence polarisation; direct binding: 10 nM FAM-labeled peptide, receptor serially diluted; 25°C; 20 mM NaPO4, 50 mM NaCl, 1 mM EDTA, 0.001% Triton X, pH 7.8; single-site binding model
[7] = molecular target: peptide based on the putative BH3 motif in Aven (human); experiment: peptide or protein array; peptide SPOT arrays on nitrocellulose membranes; 1 µM or 100 nM c-Myc-tagged receptor in TBS (50 mM Tris, pH 8.1, 100 mM NaCl, 0.01% Triton X-100), 1 h, room temperature; detected with anti-c-myc-Cy3; signal given as percent of the Bim BH3 signal
Bcl-2 [8] = molecular target: Bcl-2 (UniProt P10415); experiment: fluorescence polarisation; binding assay in solution; direct or competition not told for this peptide (MRPL41 was unlabeled in Figure S2)
Target sequence in this assay (P10415 whole entry): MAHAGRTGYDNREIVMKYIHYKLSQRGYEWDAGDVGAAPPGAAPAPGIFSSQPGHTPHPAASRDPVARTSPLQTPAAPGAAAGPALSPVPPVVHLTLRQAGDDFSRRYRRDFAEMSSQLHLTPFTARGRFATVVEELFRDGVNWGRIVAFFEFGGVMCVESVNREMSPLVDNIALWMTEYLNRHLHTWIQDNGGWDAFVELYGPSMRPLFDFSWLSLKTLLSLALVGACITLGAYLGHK

TSC2, sequence (chain, as listed by the source): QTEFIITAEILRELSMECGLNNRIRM
BCL2L15, sequence (chain, as listed by the source): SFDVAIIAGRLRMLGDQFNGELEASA
Bcl-xL (UniProt Q07817), sequence (Q07817 1-209): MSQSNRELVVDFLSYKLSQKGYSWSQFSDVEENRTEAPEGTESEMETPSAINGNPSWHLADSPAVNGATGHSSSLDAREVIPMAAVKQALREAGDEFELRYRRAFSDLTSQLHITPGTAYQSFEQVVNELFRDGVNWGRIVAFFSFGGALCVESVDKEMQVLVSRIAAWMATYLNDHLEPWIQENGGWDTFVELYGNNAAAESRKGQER
ATP2B1, sequence (chain, as listed by the source): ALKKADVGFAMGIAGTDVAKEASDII
Bad BH3 peptide BH3, sequence (Q92934 103-127): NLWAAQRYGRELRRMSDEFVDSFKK
PSMB1, sequence (chain, as listed by the source): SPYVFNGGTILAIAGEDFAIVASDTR
Bcl-xL (from UniProt Q07817-1 1-233) (natural protein), sequence (Q07817 whole entry): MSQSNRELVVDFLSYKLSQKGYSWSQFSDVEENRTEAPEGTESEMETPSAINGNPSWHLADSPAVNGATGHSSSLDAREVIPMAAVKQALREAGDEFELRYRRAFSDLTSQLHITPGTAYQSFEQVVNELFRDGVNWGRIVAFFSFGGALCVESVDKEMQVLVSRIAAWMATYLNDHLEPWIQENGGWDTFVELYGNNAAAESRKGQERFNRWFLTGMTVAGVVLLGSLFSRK
Bcl-w, sequence (Q92843 1-164 Q133R): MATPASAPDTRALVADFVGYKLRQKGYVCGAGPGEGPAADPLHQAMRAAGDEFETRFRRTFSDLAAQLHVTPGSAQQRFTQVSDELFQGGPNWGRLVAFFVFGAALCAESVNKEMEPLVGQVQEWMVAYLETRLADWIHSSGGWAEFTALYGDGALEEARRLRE
EHMT1, sequence (chain, as listed by the source): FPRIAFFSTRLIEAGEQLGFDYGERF
PACSIN2, sequence (chain, as listed by the source): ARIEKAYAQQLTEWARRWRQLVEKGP
EIF2C1, sequence (chain, as listed by the source): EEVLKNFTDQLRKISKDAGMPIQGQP
MYO3A, sequence (chain, as listed by the source): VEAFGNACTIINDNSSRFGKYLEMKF
ARPC5L, sequence (chain, as listed by the source): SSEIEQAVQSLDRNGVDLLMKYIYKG
Mcl-1 (from UniProt Q07820 1-350) (natural protein), sequence (Q07820 whole entry): as the sequence (Q07820 whole entry) above
EIF2C3, sequence (chain, as listed by the source): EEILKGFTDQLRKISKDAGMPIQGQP
GRIN2D, sequence (chain, as listed by the source): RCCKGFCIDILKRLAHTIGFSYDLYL
GRIN3A, sequence (chain, as listed by the source): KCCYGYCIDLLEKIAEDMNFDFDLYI
C7orf16, sequence (chain, as listed by the source): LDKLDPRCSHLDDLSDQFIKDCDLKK
Bcl-2 (from UniProt P10415 1-239) (natural protein), sequence (P10415 whole entry): as the sequence (P10415 whole entry) above

Row | Substance | SPOT signal as a fraction of Bim BH3's signal on the same receptor and array (Bcl-xL) | SPOT signal as a fraction of Bim BH3's signal on the same receptor and array (Mcl-1 [1]) | other results
1 | ARPC5 | 0.03 |  | 
2 | ARPC5L | 0.03 |  | 
3 | ATP2B1 | 0.02 | 0.01 | 
4 | BCL2L15 |  |  | SPOT signal as a fraction of Bim BH3's signal on the same receptor and array (Bcl-2 [2]): 0.75; SPOT signal as a fraction of Bim BH3's signal on the same receptor and array (Bcl-w): 0.58; SPOT signal as a fraction of Bim BH3's signal on the same receptor and array (Bfl-1 [3]): 0.52
5 | Bad BH3 peptide BH3 (from UniProt Q92934) |  |  | Kd (Mcl-1 [4]): > 2500 nM; Kd (Bfl-1 [5]): > 2500 nM
6 | Bcl-2 (from UniProt P10415 1-239) (natural protein) |  |  | Kd [6]: < 30 nM
7 | Bcl-xL (from UniProt Q07817-1 1-233) (natural protein) |  |  | Kd [6]: < 30 nM; percent of the Bim BH3 SPOT signal [7]: 11%
8 | CHAF1B | 0.02 | 0.02 | 
9 | CYP2A13 | 0.06 and 0.07 | 0.04 and 0.05 | SPOT signal as a fraction of Bim BH3's signal on the same receptor and array (Bfl-1 [3]): 0.04
10 | EHMT1 | 0.04 |  | 
11 | GRIN2D |  | 0.06 | 
12 | GRIN3A |  | 0.03 | 
13 | HRK | 0.56 and 0.38 |  | SPOT signal as a fraction of Bim BH3's signal on the same receptor and array (Bfl-1 [3]): 0.23 and 0.32
14 | KIF5C |  | 0.07 and 0.16 | 
15 | MRPL41 BH3-like peptide |  |  | Kd (Bcl-2 [8]): 190 nM
16 | Mcl-1 (from UniProt Q07820 1-350) (natural protein) |  |  | Kd [6]: < 30 nM
17 | RPL29 | 0.72 and 0.7 |  | 
18 | SYN1 | 0.1 | 0.03 and 0.04 | SPOT signal as a fraction of Bim BH3's signal on the same receptor and array (Bfl-1 [3]): 0.04

Second part, led by results:

Row | SPOT signal as a fraction of Bim BH3's signal on the same receptor and array (Bcl-xL) | SPOT signal as a fraction of Bim BH3's signal on the same receptor and array (Mcl-1 [1]) | Substance | other results
19 | 0.02 |  | C7orf16 | 
20 |  | 0.02 | C9orf84 | 
21 | 0.02 |  | EIF2C1 | 
22 | 0.03 |  | EIF2C3 | 
23 |  | 0.13 | MYO3A | 
24 | 0.24 |  | PACSIN2 | 
25 | 0.02 | 0.02 | PSMB1 | 
26 |  | 0.03 | TAF6 | 
27 | 0.06 | 0.04 | TRIO | SPOT signal as a fraction of Bim BH3's signal on the same receptor and array (Bfl-1 [3]): 0.04 and 0.05
28 | 0.15 | 0.06 | TSC2 | SPOT signal as a fraction of Bim BH3's signal on the same receptor and array (Bcl-2 [2]): 0.01; SPOT signal as a fraction of Bim BH3's signal on the same receptor and array (Bcl-w): 0.03; SPOT signal as a fraction of Bim BH3's signal on the same receptor and array (Bfl-1 [3]): 0.03
29 | 0.02 and 0.01 | 0.02 | VPS29 | 
